First the molecules themselves.
B1: Ubc2 (yeast) (enzyme, Saccharomyces cerevisiae, UniProt P06104 1-172, looked up)
chain: MSTPARRRLMRDFKRMKEDAPPGVSASPLPDNVMVWNAMIIGPADTPYEDGTFRLLLEFDEEYPNKPPHVKFLSEMFHPNVYANGEICLDILQNRWTPTYDVASILTSIQSLFNDPNPASPANVEAATLFKDHKSQYVKRVKETVEKSWEDDMDDMDDDDDDDDDDDDDEAD

Test [1] concerns the target B1. The experiment in a line: ITC.
In test [2] the target is Ubr1 (yeast, FLAG-tagged) (Saccharomyces cerevisiae, UniProt P19812 1-1950). As to the kind of experiment: cryo-EM structure.
Ubr1 (yeast, FLAG-tagged), sequence (P19812 whole entry): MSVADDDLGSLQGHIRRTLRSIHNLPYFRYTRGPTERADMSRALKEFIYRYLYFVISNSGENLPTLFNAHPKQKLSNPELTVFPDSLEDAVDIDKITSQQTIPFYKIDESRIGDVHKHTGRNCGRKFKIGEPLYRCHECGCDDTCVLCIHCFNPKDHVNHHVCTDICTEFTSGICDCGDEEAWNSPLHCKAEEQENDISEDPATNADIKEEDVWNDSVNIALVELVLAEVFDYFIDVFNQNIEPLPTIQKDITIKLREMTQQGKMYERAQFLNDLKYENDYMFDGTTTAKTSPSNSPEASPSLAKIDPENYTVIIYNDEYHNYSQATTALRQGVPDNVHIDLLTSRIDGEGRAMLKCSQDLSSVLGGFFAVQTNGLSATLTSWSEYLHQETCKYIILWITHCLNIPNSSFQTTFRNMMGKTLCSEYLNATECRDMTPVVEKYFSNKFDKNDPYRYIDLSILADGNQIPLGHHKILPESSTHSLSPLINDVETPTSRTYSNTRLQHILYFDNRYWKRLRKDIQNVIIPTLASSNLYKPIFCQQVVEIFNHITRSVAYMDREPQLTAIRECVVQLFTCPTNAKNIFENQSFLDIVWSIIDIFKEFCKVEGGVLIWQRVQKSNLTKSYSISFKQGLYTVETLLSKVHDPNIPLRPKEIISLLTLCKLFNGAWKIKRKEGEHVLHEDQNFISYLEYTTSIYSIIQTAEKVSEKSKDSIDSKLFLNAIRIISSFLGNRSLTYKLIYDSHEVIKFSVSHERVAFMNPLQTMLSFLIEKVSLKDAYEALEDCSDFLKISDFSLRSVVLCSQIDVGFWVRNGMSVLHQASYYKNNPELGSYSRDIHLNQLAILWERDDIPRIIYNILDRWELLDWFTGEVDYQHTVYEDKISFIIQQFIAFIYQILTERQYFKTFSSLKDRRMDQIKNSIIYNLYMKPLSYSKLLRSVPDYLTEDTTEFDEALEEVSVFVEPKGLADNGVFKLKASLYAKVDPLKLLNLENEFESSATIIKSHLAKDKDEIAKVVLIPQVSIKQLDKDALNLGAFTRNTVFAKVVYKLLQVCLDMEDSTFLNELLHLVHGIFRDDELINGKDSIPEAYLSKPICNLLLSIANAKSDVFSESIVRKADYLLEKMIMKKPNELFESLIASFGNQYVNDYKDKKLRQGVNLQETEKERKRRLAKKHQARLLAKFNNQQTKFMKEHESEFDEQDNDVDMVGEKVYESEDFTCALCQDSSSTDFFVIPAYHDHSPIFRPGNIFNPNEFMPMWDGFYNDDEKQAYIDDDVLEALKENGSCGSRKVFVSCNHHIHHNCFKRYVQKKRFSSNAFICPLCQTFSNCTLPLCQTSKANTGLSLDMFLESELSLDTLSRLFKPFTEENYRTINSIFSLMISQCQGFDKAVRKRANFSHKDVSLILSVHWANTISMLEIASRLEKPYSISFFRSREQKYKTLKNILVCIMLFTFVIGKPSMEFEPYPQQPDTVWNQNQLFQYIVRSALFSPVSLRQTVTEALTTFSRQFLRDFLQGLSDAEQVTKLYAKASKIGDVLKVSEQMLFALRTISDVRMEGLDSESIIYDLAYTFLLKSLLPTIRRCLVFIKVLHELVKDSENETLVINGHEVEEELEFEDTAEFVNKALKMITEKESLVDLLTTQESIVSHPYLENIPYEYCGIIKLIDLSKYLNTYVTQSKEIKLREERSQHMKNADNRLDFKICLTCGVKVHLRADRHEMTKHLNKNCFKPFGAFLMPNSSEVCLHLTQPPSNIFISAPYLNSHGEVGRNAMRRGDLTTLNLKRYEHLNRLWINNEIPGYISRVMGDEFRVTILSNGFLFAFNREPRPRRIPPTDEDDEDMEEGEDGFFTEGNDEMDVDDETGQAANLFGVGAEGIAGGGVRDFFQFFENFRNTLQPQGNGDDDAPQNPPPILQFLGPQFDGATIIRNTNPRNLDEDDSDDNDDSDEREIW

Turning to KERKRRLAKKHQARLLAKFNNQQTKFMKEHESEFDE (peptide, UniProt P19812 1165-1200, looked up) [U2BR peptide (Ubr1 1165-1200)], the Kd in test [1] came out at 143 ± 45 nM.

Turning to B1, in test [2], the binding result is reported as “binds”.

The values are drawn from doi:10.1101/2021.04.12.439291 (bioRxiv, 2021).
